Tests used:
Type in all cases: biochemical
[1] = Synthesis of N-caprinoyl-amino acid derivative, N-caprinoyl-D-amino acid and N-caprinoyl-peptide using purified acylamino acid synthetase, UPLC-MS detection; set-up: key: +: Detected; −: Not detected; settings: +ATP
How it was run: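 Purified enzyme (50 μg/mL) was incubated with 5 mM sodium caprate, 5 mM amino acid derivative, D-amino acid or peptide, 10 mM ATP, 10 mM MgCl2 and 1 mM DTT in 50 mM Tris-HCl, pH 8.0, for 24 h at 25 °C. After acidic methanol stop, UPLC-MS looked for the mass of the N-caprinoyl product.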

[2] = Synthesis of N-lauroylamino acid / N-lauroylamino acid derivative using purified acylamino acid synthetase, UPLC-MS detection; set-up: key: +: Detected; −: Not detected; settings: +ATP
Experimental: 0.2 mL of a reaction solution containing 50 mM Tris-HCl, 5 mM amino acid or D-amino acid derivative, 5 mM sodium laurate, 10 mM ATP, 10 mM MgCl2, 1 mM DTT, 200 μg/mL of the purified enzyme, pH 8.0 was incubated at 25° C. for 24 hours. After completion of the reaction, 0.8 mL of the reaction stop solution (1% (v/v) phosphoric acid, 75% (v/v) methanol) was added, and the mixture was filtrated through the filter followed by being subjected to the UPLC-MS analysis to detect a signal of a molecular weight corresponding to an N-lauroyl-amino acid or an N-lauroyl-amino acid derivative. The condition for the UPLC-MS analysis is as described in Example 2.
As a result of the UPLC-MS analysis, the signal of the molecular weight corresponding to the N-lauroyl-amino acid or the N-lauroyl-amino acid derivative was confirmed in the reaction solution containing the enzyme in combination with the amino acid or the amino acid derivative shown in Table 5 below.

[3] = Quantification of produced N-acylamino acid (UV 210 nm) using purified acylamino acid synthetase; settings: 5 mM L-Asp, 5 mM sodium fatty acid, 200 μg/mL enzyme, 25° C., 24 hours
[4] = Synthesis of N-acylamino acids from various fatty acids using purified acylamino acid synthetase, UPLC-MS detection; set-up: key: +: Detected; −: Not detected
How it was run: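 Purified enzyme (200 μg/mL) with 5 mM amino acid, 5 mM sodium fatty acid (3 mM palmitate or stearate, plus 10% methanol), 10 mM ATP, 10 mM MgCl2, 1 mM DTT in 50 mM Tris-HCl pH 8.0, shaken 24 h at 25 °C. Amino acid varied by enzyme; product mass detected by UPLC-MS (ESI-negative).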

B1: AtGH3-12: 4-substituted benzoates-glutamate ligase GH3.12 from Arabidopsis thaliana, His-tagged (protein, listed as Arabidopsis thaliana)
chain: MKPIFDINETFEKQLKDLTSNVKSIQDNLLEEIITPNTKTEYLQRFLIDRFDKELFKKNVPIVSYEDIKPYLDRVVNGESSDVISARTITGFLLSSGTSGGAQKMMPWNNKYLDNLTFIYDLRMQVITKHVKGVEEGKGMMFLFTKQESMTPSGLPARVATSSYFKSDYFKNRPSNWYYSYTSPDEVILCPNNTESLYCHLLCGLVQRDEVVRTGSIFASVMVRAIEVLKNSWEELCSNIRSGHLSNWVTDLGCQNSVSLVLGGPRPELADTIEEICNQNSWKGIVKRLWPNTKYIETVVTGSMGQYVPMLNYYCNDLPLVSTTYGSSETTFGINLDPLCKPEDVSYTFMPNMSYFEFIPMDGGDKNDVVDLEDVKLGCTYEPVVTNFAGLYRMRVGDIVLVTGFYNNAPQFKFVRRENVVLSIDSDKTNEEDLFKAVSQAKLVLESSGLDLKDFTSYADTSTFPGHYVVYLEVDTKEGEEKETAQFELDEEALSTCCLVMEESLDNVYKRCRFKDGSIGPLEIRVVRQGTFDSLMDFFISQGASTGQYKTPRCIKSGKALQVLETCVVAKFFSI
modifications: His-tag
notes: 4-substituted benzoates-glutamate ligase GH3.12 from Arabidopsis thaliana, His-tagged
In the case of B1, the “signal of molecular weight corresponding to N-caprinoyl compound” value (shortened to “signal … to N-caprinoyl compound”) ([1]; substrates Carnosine and sodium caprate) is reported as “+”, the “signal … to N-caprinoyl compound” value ([1]; substrates D-Ala and sodium caprate) is reported as “+” and the “signal … to N-caprinoyl compound” value ([1]; substrates D-Asp and sodium caprate) is reported as “+”. The “signal … to N-caprinoyl compound” value ([1]; substrates D-Cys and sodium caprate) was “−”, the “signal … to N-caprinoyl compound” value ([1]; substrates D-Glu and sodium caprate) was “+” and the “signal … to N-caprinoyl compound” value ([1]; substrates D-Ile and sodium caprate) was “+”. The “signal … to N-caprinoyl compound” value ([1]; substrates D-Lys and sodium caprate) was “+”, the “signal … to N-caprinoyl compound” value ([1]; substrates L-Asp-L-Phe and sodium caprate) was “+” and the “signal … to N-caprinoyl compound” value ([1]; substrates L-Gly-L-Gly and sodium caprate) was “+”. For the same molecule, the “signal … to N-caprinoyl compound” value ([1]; substrates Sarcosine and sodium caprate) was “+”, the “signal … to N-caprinoyl compound” value ([1]; substrates Taurine and sodium caprate) was “+” and the “signal of molecular weight corresponding to N-lauroyl amino acid” value (from here on “signal … to N-lauroyl amino acid”) ([2]; substrates Gly and sodium laurate) was “−”. The “signal … to N-lauroyl amino acid” value ([2]; substrates L-Ala and sodium laurate) was “−”, the “signal … to N-lauroyl amino acid” value ([2]; substrates L-Arg and sodium laurate) was “−” and the “signal … to N-lauroyl amino acid” value ([2]; substrates L-Asp and sodium laurate) was “+”. The “signal … to N-lauroyl amino acid” value ([2]; substrates L-Glu and sodium laurate) was “−”, the “signal … to N-lauroyl amino acid” value ([2]; substrates L-Lys and sodium laurate) was “+” and the “signal … to N-lauroyl amino acid” value ([2]; substrates L-Thr and sodium laurate) was “+”. For the same molecule, the “signal … to N-lauroyl amino acid” value ([2]; substrates β-Ala and sodium laurate) was “−”, the Nα-caprinoyl-L-aspartic acid detected [3] was 0.6 mM and the Nα-capryloyl-L-aspartic acid detected [3] was 1.6 mM. For the same molecule, the Nα-lauroyl-L-aspartic acid detected [3] was 0.2 mM, the “signal of molecular weight corresponding to N-acylamino acid” value (“signal … to N-acylamino acid” below) ([4]; substrates L-Asp and Capric acid) was “+” and the “signal … to N-acylamino acid” value ([4]; substrates L-Asp and Caproic acid) was “+”. For the same molecule, the “signal … to N-acylamino acid” value ([4]; substrates L-Asp and Caprylic acid) was “+”, the “signal … to N-acylamino acid” value ([4]; substrates L-Asp and Lauric acid) was “+” and the “signal … to N-acylamino acid” value ([4]; substrates L-Asp and Linoleic acid) was “+”. For the same molecule, the “signal … to N-acylamino acid” value ([4]; substrates L-Asp and Palmitic acid) was “+” and the “signal … to N-acylamino acid” value ([4]; substrates L-Asp and myristic acid) was “+”.
